# Measured values reported in patent US20180339042A1 (published 2018).
# T1: human GITR, membrane bound (human, UniProt Q9Y5U5 26-241)
# T1 sequence: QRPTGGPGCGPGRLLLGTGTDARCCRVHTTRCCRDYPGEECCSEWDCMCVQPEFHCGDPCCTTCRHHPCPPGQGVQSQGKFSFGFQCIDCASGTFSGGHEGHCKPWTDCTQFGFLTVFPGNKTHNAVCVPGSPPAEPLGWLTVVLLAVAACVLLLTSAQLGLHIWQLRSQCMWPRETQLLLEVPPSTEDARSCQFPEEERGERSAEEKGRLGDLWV
# B1: 28F3 (antibody, human IgG2, kappa)
# heavy: QVQLVESGGGVVQPGRSLRLSCAASGFTFSSYGMHWVRQAPGKGLEWVAVIWYEGSNKYYADSVKGRFTISRDNSKNTLYLQMNSLRAEDTAVYYCARGGSMVRGDYYYGMDVWGQGTTVTVSSASTKGPSVFPLAPCSRSTSESTAALGCLVKDYFPEPVTVSWNSGALTSGVHTFPAVLQSSGLYSLSSVVTVPSSNFGTQTYTCNVDHKPSNTKVDKTVERKCCVECPPCPAPPVAGPSVFLFPPKPKDTLMISRTPEVTCVVVDVSHEDPEVQFNWYVDGVEVHNAKTKPREEQFNSTFRVVSVLTVVHQDWLNGKEYKCKVSNKGLPAPIEKTISKTKGQPREPQVYTLPPSREEMTKNQVSLTCLVKGFYPSDIAVEWESNGQPENNYKTTPPMLDSDGSFFLYSKLTVDKSRWQQGNVFSCSVMHEALHNHYTQKSLSLSPGK
# light: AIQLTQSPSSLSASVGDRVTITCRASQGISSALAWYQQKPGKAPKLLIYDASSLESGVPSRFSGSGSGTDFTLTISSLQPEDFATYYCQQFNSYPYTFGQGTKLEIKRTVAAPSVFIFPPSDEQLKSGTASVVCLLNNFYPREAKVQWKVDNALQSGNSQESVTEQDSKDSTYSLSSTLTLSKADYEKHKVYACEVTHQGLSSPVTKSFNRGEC
# Target: T1, human GITR, membrane bound
# Assay: cell-based or functional assay
binder,measurement,value
B1,"NFKB signaling (phospho-p65), CD4+ T cells, Emax (%)",69%
same,"NFKB signaling (phospho-p65), CD8+ T cells, Emax (%)",85%
